Assay: yeast display, Sf9 membrane polyspecificity reagent, FACS + sequencing; frameworks hold sequencing errors
Outline: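 A nanobody's polyreactivity label depends on the gate it was sorted from. Yeast display cells were stained with 10% biotinylated, detergent-solubilized Sf9 membrane reagent for 1 hour at 4 °C, enriched on streptavidin microbeads and sorted by FACS. The low and high (top ~1%) gates were set on anti-HA fluorescence for expression and streptavidin fluorescence for reagent binding.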

Sequence	polyreactivity (PSR sort gate)
QVQLVESGGGLVQAGGSLRLSCAASGSARYAMGWYRQAPGKERELVAAISRRGGSTFYADSVKGRFTISRDNAKNTVYLQMNSLKPEDTAVYYCAADGRISYDYWGQGTQVTVSS	low polyreactivity
QVQLVESGGGLVQAGGSLRLSCAASGSFFRNYAMGWYRQAPGKERELVAAISRRGTSTFYADSVKGRFTISRDNAMNTVYLQMNSLKPEDTAVYYCAARGSAGGDYGYWGQGTQVTVSS	high polyreactivity
QVQLVESGGGLVQAGGSLRLSCAASGSIAGNAMGWYRQAPGKERELVATITRRGGRTYYADSVKGRFTISRDNAKNTVYLQMNSLKPEDTAVYYCNKVSYARGYDYWGQGTQVTVSS	high polyreactivity
QVQLVESGGGLVQAGGSLRLSCAASGSICGKNGMGWYRQAPGKERELVAAITSGGGNTYYADSVKGRFTISRDNAKNTVYLQMNSLKPEDTAVDYCAKGYRAYYWGFNYWGQGTQVTVSS	high polyreactivity
QVQLVESGGGLVQAGGSLRLSCAASGSICRQYTMGWYRQAPGKERELVAGINQSGDSTSADSVKGRFTISRDNAKNTVYLQMNSLKPEDTAVYYCNADPRVWYRNIYPGRNYDYWGQGTQVTVSS	low polyreactivity
QVQLVESGGGLVQAGGSLRLSCAASGSICRYYDMGWYRQAPGKERELVAAISRSGGSTYYADSVKGRFTISRDNAKNTVYLQMNSLKPEDTAVYYCNVDQFRYREDDYWGQGTQVNVSS	high polyreactivity
QVQLVESGGGLVQAGGSLRLSCAASGSIFAAYTMGWYRQAPGKERVFVAAITYTGGSTYYADSVKGRFTISRDNAKNTVYLQMNSLKPEDTAVYYCAARGRLCQGYYYWGQGTQVTVSS	low polyreactivity
QVQLVESGGGLVQAGGSLRLSCAASGSIFAAYTMGWYRQAPGNERELVAAISVSTVSTYYADSVKGRFTISRDNAKNTVYLQMNSLKPEDTAVYYCNADATDSYPEKDEHESWGQGTQVTVSS	low polyreactivity
QVQLVESGGGLVQAGGSLRLSCAASGSIFADNTMGWSRQAPGKERELVAAITSSGRTYYADSVTGRFTISRDNAKNTVYLQMKSLKPEDTAVYYCAAVIYFHDYSPYYYWGQGTQVTVSS	high polyreactivity
QVQLVESGGGLVQAGGSLRLSCAASGSIFADYAMGWYRQAPGKERELVAAISYNGDSTYYADSVKGRFTISRDNAKTTVYLQMNSLKPEDTAVYNCAADGAYGGYDYWGQGTQVTVSS	low polyreactivity
QVQLVESGGGLVQAGGSLRLSCAASGSIFADYTMGWYRQAPGKEREVVAAITSGGSTYYADSVKGRFTISRDNAKNTVYLQMNSLKPEDTAVYYCAAYYGGRGYWGQGTQVTVSS	low polyreactivity
QVQLVESGGGLVQAGGSLRLSCAASGSIFAGNAMGWYRQAPGKERELVAAISWRGGSTYYADSVKGRFTISRDNAKNTVYLQMNSLKPEDTAVYYCAATWYDRRTFFYKYDYWGQGTQVTVSS	low polyreactivity
QVQLVESGGGLVQAGGSLRLSCAASGSIFAGYAMGWYRQAPGKERELVAAISKSAGSTYYADSVKGRFTISRDNAKNTVYLQMNSLKPEDTAVYYCAARTFNTYPRYYYWGQGTQVTVSS	high polyreactivity
QVQLVESGGGLVQAGGSLRLSCAASGSIFAGYAMGWYRQAPGKERELVAVISSTGSTYYADSVKGRFTISRDNAKNTVYLQMNSLKPEDTAVYYCAAGDVGYSYYRIYSRMDYWGQGTQVTVSS	low polyreactivity
QVQLVESGGGLVQAGGSLRLSCAASGSIFAGYTMGWSRQAPGKERELVAVISTGGRTKYADSVKGRFTISRDNAKNTVYLQMNSLKPEDTAVYYCAADSRGWSLDGDYWGQGTQVTVSS	low polyreactivity
QVQLVESGGGLVQAGGSLRLSCAASGSIFAGYTMGWYRQAPGKERELVATITRSGTSTFYADSVKGRFTISRDNAKNTVYLQMNSLKPEDTAVYYCAADVTARYDYWGQGTQVTVSS	high polyreactivity
QVQLVESGGGLVQAGGSLRLSCAASGSIFAIYVMGWYRQAPGKERELVAAISYRSGSTYYADSVKGRFTISRDNAKNTVYLQMNSLKPEDTAVYYCAATSRYYTFGYWGQGTQVTVSS	low polyreactivity
QVQLVESGGGLVQAGGSLRLSCAASGSIFAKYAMGWYRQAPGKERELVAAITSGGSTNYADSVKGRFTISRDNAKITVYLQINSLKPEDTAVYYCNATGLYYDFYKLDYWGQGTQVTVSS	low polyreactivity
QVQLVESGGGLVQAGGSLRLSCAASGSIFAKYAMGWYRQAPGKERELVAAITSGGSTNYADSVKGRFTISRDNAKNTVYLQMTSLKPEDTAVYYCAARNHYRGYYWGQGTHVTVSS	low polyreactivity
QVQLVESGGGLVQAGGSLRLSCAASGSIFAKYAMGWYRQAPGKERELVAAITYSSSSTYYADSVKGRFTISRDNAKNTVYLQMNSLKPEDTAVYYCAARKKARGHGGNDYWGQGTLVTVSS	high polyreactivity
QVQLVESGGGLVQAGGSLRLSCAASGSIFAKYAMGWYRQAPGKERELVASITYSGGGTYYADSVKGRFTISLDNAKNTVYLQMNSLKPEDTAFYYCNAVKRVYIWASFRYVFWYDSWGQATQVTVSS	high polyreactivity
QVQLVESGGGLVQAGGSLRLSCAASGSIFAKYAMGWYRQAPGKERELVAVITSRGGTYYADSVKGRFTISRDNAKKTVYLQMNSLKPEDTAVYYCAARGGGQPVAYDYWGQGTQVTVSS	high polyreactivity

Sequence	polyreactivity (PSR sort gate)
QVQLVESGGGLVQAGGSLRLSCAASGSIFAKYAMGWYRQAPGKESEFVAAIRASGGRTYYADSVKGRFTISRDNAKNTVYLQMNSLKPEDTAVYYCAAHLYSSRSDYDGPRSRRNYWGQGTQVTVSS	high polyreactivity
QVQLVESGGGLVQAGGSLRLSCAASGSIFAKYTMGWYRQAPGKERELVAAITRSGTSTRYADSVKGRFTISRDNAKNTVYLQMNSLKPEDTAVYYCAASLYSWGQGTQVTVSS	high polyreactivity
QVQLVESGGGLVQAGGSLRLSCAASGSIFANNVMGWYRQAPGKEREFVAAISWSGGRTYYADSVTGRFTISRDNAKNTVYLQMNSLKPEDTAVYYCARRPRAWGQGTQVTVSS	high polyreactivity
QVQLVESGGGLVQAGGSLRLSCAASGSIFAPYAMGWYRQAPGKERELVAAINNNGGRTYYADSVKGRFTISRDNAKNTVYLQMNSLKPEDTAVYYCAADIYPDWIYLLYGYWGQGTQVTVSS	low polyreactivity
QVQLVESGGGLVQAGGSLRLSCAASGSIFARNAMGWYRQAPGKERELVAAISRSGGITYYADSVKGRFTISRDNAKNTVYLQMNSLKPEDTAVYYCATVGYYKGNQVLPAKDGDSWGQGTQVTVSS	high polyreactivity
QVQLVESGGGLVQAGGSLRLSCAASGSIFARNAMGWYRQAPGKERELVASITWSGASTYYADSVKGRFTISRDNAKNTVYVQMNSLKPEDTAVYYCAATDQKLSLDYSSYEYWGQGTQVTVSS	low polyreactivity
QVQLVESGGGLVQAGGSLRLSCAASGSIFARNAMGWYRQAPGKERELVAVITTGGRTYYADSVKGRFTISRDNAKNTVYLQMNSLKPEDTAVYYCATRVIYGQSGGYWGQGTQVTVSS	high polyreactivity
QVQLVESGGGLVQAGGSLRLSCAASGSIFARYAMGWYRQAPGKERELVAAISGSGASTYYADSVKGRFTISRDNAKNTVFLQMNSLKPEDTAVYYCARPFLRRPTYRFESGYGYWGQGTQVTVSS	high polyreactivity
QVQLVESGGGLVQAGGSLRLSCAASGSIFARYAMGWYRQAPGKERELVATISYRGSSTYYADSVKGRFTISRDNAKNTVYLQMNSLKPEDTAVYYCAARTYRRIYAYYRFDYWGQGTQVTVSS	low polyreactivity
QVQLVESGGGLVQAGGSLRLSCAASGSIFARYAMGWYRQAPGTERELVAAISRNGGSTYYADSVKGRFTISRDNAKNTVYLQMNSLKPEDTAVYYCAASYYVLYTREYDYWGQGTQVTVSS	low polyreactivity
QVQLVESGGGLVQAGGSLRLSCAASGSIFASYAMGWYRQAPGKERELVAAIRSSGGRTYYADSVKGRFTISRDNAKNTVYLQMNSLKPEDTAVYYCNARRPGYRPYGYDYWGQGTQVTVSS	high polyreactivity
QVQLVESGGGLVQAGGSLRLSCAASGSIFASYAMGWYRQAPGKERELVAAISARGGSTYYADSVKGRFTISRDNAKNTVYLQMNSLKPEDTAVYYCAARHQQGRRISDYGYWGQGTQVTVSS	high polyreactivity
QVQLVESGGGLVQAGGSLRLSCAASGSIFASYVMGWYRQAPGKERELVASITLSGGSTYYADSVKGRFTISRDNAKNTVYLQMNSLKPEDTAVYYCAKRGTLWLQEDYYWGQGTQVTVSS	low polyreactivity
QVQLVESGGGLVQAGGSLRLSCAASGSIFATHAMGWYRQAPGQDRELVAAISWRTGSTVYADSVKGRFTISRDNAKNTDYLQMNSLKPEDTAVYYCAATRRGDNYRYDYWGQGTQVTVSS	high polyreactivity
QVQLVESGGGLVQAGGSLRLSCAASGSIFAVNTMGWYRQAPGKERELVAAISQRGSSTYYADSVKGRFTISRDNAKNTVYLQMNSLKPEDTAVYYCAKRFIYGRYNYWGQGTQVTVSS	high polyreactivity
QVQLVESGGGLVQAGGSLRLSCAASGSIFAVYAMGWYRQAPGKERELVASISRRGGSTYYADSVKGRFTISRDNAKNTVYLQMNSLKPEDTAVYYCAATGRRGYGYGYWGQGTQVTVSS	high polyreactivity
QVQLVESGGGLVQAGGSLRLSCAASGSIFAVYAMVWYRQAPGKERELVAAISWSVGSTYYADSVKGRFTISRDNAKNTVYLQMNRLKPEDTAVYYCAADLAYYLDYVEYFTEIELEGYWGQGTQVTVSS	low polyreactivity
QVQLVESGGGLVQAGGSLRLSCAASGSIFAWYAMGWYRQAPGKERELVATITWSGGSTYYADSVKGRFTISRDNAKNTVYLQMNSLKPEDTAVYYCAAEVVGICYDLWYQGDYWGQGTQVTVSS	low polyreactivity
QVQLVESGGGLVQAGGSLRLSCAASGSIFAWYAMGWYRQAPGKERELVAVITRGGSTNYADSVKGRFTISRDNAKNTVYLQMNSLKPEDTAVYYCAAGSYYSWYPFDYWGQGTQVTVSS	low polyreactivity
QVQLVESGGGLVQAGGSLRLSCAASGSIFAWYGMGRYRQAPGIERELVAAITTAGSTNYADSVKGRFTISRDNAKNTVYLHMNSLKPEDTAVYYCATATPYVSLKDAHDYGGQGTQVTVSS	low polyreactivity
QVQLVESGGGLVQAGGSLRLSCAASGSIFAWYGMGWYRPAPGKERELVAAISTAGSTNYADSVKGRFTISRDNAKNTVYLQMNSLKPEDTAVYYCAKKSSWYYPERFDYWGQGTQVTVSS	low polyreactivity

From the nanobody polyreactivity screen of Harvey et al. (2022)
